Consider 2 molecules from paper PMC3295762, “Gene Expression of the Tumour Suppressor LKB1 Is Mediated by Sp1, NF-Y and FOXO Transcription Factors”.

The target in series [1] is T1, GST-FOXO3 (UniProt O43524 1-673). The experiment in a line: competition; unlabeled excess vs N1 probe; EMSA: 10% glycerol, 12 mM HEPES pH 7.9, 4 mM Tris-HCl pH 7.9, 60 mM KCl, 1 mM DTT, 0.6 mg/ml BSA, 0.5 ug poly(dI-dC), 20 ul, 30 min at 25 C; supershift 1 h at 4 C. To be noted: protein: commercial; tags: GST; blunt. In general terms: A gel shift assay detects complexes by their altered migration in electrophoresis.
T1 sequence (O43524 whole entry): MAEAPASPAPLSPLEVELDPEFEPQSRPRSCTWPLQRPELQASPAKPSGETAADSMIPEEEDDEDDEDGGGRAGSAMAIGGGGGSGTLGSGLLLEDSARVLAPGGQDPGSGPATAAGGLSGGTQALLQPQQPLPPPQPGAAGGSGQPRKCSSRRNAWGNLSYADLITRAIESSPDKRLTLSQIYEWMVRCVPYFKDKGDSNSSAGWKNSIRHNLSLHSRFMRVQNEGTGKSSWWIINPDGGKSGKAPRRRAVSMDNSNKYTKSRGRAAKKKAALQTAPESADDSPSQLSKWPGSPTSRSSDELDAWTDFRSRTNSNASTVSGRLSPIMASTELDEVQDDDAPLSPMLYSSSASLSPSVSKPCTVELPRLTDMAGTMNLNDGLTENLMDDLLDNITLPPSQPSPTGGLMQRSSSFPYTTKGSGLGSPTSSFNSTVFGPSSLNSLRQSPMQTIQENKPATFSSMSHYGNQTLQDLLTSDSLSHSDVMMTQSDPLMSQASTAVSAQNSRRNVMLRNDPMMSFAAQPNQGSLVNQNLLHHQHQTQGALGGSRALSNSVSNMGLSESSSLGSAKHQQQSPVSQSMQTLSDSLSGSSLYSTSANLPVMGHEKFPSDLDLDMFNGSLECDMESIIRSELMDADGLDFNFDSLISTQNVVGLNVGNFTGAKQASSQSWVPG

For series [2], the target named is T1, GST-FOXO3. The experiment in a line: EMSA; EMSA: 10% glycerol, 12 mM HEPES pH 7.9, 4 mM Tris-HCl pH 7.9, 60 mM KCl, 1 mM DTT, 0.6 mg/ml BSA, 0.5 ug poly(dI-dC), 20 ul, 30 min at 25 C; supershift 1 h at 4 C. To be noted: protein: commercial; tags: GST; label: 32P; blunt.

B1: LKB1 FOXO site oligo mutant (dsDNA)
DNA 1: GGGGAGGGAGGTAGCCAAGATGGCGGC
DNA 2: GCCGCCATCTTGGCTACCTCCCTCCCC
On to B1, for which the binding result with GST-FOXO3 [1] is “no binding”.

B2: LKB1 FOXO site oligo WT (dsDNA)
DNA 1: GGGGAGGGAGGTAAACAAGATGGCGGC
DNA 2: GCCGCCATCTTGTTTACCTCCCTCCCC
Regarding B2, the binding result with GST-FOXO3 [2] is “binds”.
